This is an account of results in US20140213513A1 (Sanofi, priority 2012, published 2014).

Holding throughout (assay): cell-based or functional assay
One assay has as its target human GLP-1 receptor (human, UniProt P43220 24-463).
A further assay addresses T1, human GIP receptor (human, UniProt P48546 22-466).
T1 sequence (looked up): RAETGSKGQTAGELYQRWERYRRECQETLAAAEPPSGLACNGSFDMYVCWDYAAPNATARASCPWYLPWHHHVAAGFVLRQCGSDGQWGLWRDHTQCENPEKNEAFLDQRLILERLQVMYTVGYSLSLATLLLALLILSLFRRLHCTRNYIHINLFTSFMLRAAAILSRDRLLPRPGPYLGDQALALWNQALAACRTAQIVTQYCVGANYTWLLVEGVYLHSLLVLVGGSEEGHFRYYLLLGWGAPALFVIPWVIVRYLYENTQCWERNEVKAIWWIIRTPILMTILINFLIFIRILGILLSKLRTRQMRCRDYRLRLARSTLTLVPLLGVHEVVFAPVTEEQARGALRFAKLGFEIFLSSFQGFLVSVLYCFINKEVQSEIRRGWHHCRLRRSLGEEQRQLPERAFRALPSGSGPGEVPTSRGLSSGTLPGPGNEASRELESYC

The next assay deals with human glucagon receptor (human, UniProt P47871 26-477).
Chain of human glucagon receptor (P47871 26-477): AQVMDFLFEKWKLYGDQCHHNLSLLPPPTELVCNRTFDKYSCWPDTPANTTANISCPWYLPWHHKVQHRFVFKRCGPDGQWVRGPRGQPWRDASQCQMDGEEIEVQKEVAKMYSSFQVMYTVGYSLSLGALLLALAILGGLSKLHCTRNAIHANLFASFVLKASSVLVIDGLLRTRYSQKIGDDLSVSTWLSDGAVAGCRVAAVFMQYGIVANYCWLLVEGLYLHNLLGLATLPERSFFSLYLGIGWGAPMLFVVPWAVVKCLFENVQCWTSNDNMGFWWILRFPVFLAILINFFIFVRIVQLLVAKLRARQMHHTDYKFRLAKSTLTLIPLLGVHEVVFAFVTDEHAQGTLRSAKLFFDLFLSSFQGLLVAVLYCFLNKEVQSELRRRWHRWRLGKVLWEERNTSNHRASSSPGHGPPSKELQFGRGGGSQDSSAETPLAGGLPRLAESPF

*1 amine or outer side, *2 acyl side, *3 side chain or, on linkers, in order; H or OH if unused. Where no end group is shown, it is not given here. Side-chain parts run from the residue outwards. [ ]: non-standard residue; d: D form. The star is where a group is joined. γGlu = O=C(O)[C@H](CCC(=O)[*:2])N[*:1]; Palmitoyl = CCCCCCCCCCCCCCCC(=O)*; Aib = CC(C)(N)C(=O)O

In turn, Tyr(1)Ile(12)-GLP1 (peptide) gave an EC50 hGLP-1 R with human GLP-1 receptor of 0.005 nM. In the assay with human GIP receptor, this molecule displayed an EC50 hGIP R of 3.66 nM.

B1: exendin-4 peptide analogue SEQ ID NO: 65 (peptide)
peptide: YAEGTFTSDLSKQKEEEAVRLFIEWLKAGGPSSGAPPPS
modifications: Aib at 2; Lys14 side-chain NH2 acylated with (S)-4-Carboxy-4-octadecanoylamino-butyryl- (yE-x70); C-terminal amide
Turning to B1, the “EC50 hGIP R” value in the assay with human GIP receptor was 0.012 nM. In addition, the “EC50 hGLUC R” value with human glucagon receptor worked out at 26.8 nM.

B2: exendin-4 peptide analogue SEQ ID NO: 8 (peptide)
peptide: Y[Aib]QGTFTSDLSIQK([γGlu-Palmitoyl])EKLAA[Aib]EFIEWLKNTGPSSGAPPPS-NH2
modifications: N-terminus assumed
SMILES: CCCCCCCCCCCCCCCC(=O)N[C@@H](CCC(=O)NCCCC[C@H](NC(=O)[C@H](CCC(N)=O)NC(=O)[C@@H](NC(=O)[C@H](CO)NC(=O)[C@H](CC(C)C)NC(=O)[C@H](CC(=O)O)NC(=O)[C@H](CO)NC(=O)[C@@H](NC(=O)[C@H](Cc1ccccc1)NC(=O)[C@@H](NC(=O)CNC(=O)[C@H](CCC(N)=O)NC(=O)C(C)(C)NC(=O)[C@@H](N)Cc1ccc(O)cc1)[C@@H](C)O)[C@@H](C)O)[C@@H](C)CC)C(=O)N[C@@H](CCC(=O)O)C(=O)N[C@@H](CCCCN)C(=O)N[C@@H](CC(C)C)C(=O)N[C@@H](C)C(=O)N[C@@H](C)C(=O)NC(C)(C)C(=O)N[C@@H](CCC(=O)O)C(=O)N[C@@H](Cc1ccccc1)C(=O)N[C@H](C(=O)N[C@@H](CCC(=O)O)C(=O)N[C@@H](Cc1c[nH]c2ccccc12)C(=O)N[C@@H](CC(C)C)C(=O)N[C@@H](CCCCN)C(=O)N[C@@H](CC(N)=O)C(=O)N[C@H](C(=O)NCC(=O)N1CCC[C@H]1C(=O)N[C@@H](CO)C(=O)N[C@@H](CO)C(=O)NCC(=O)N[C@@H](C)C(=O)N1CCC[C@H]1C(=O)N1CCC[C@H]1C(=O)N1CCC[C@H]1C(=O)N[C@@H](CO)C(N)=O)[C@@H](C)O)[C@@H](C)CC)C(=O)O
As for B2, the “EC50 hGLP-1 R” value with human GLP-1 receptor turned out to be 0.0087 nM. Besides, in the assay with human GIP receptor, the “EC50 hGIP R” value amounted to 0.026 nM. For the same molecule, in the assay with human glucagon receptor, the “EC50 hGLUC R” value amounted to 0.803 nM.

B3: exendin-4 peptide analogue SEQ ID NO: 33 (peptide)
peptide: Y[Aib]QGTFTSDLSIQK([γGlu-Palmitoyl])EKRAALEFIEWLKNTGPSSGAPPPS-NH2
modifications: N-terminus assumed
SMILES: CCCCCCCCCCCCCCCC(=O)N[C@@H](CCC(=O)NCCCC[C@H](NC(=O)[C@H](CCC(N)=O)NC(=O)[C@@H](NC(=O)[C@H](CO)NC(=O)[C@H](CC(C)C)NC(=O)[C@H](CC(=O)O)NC(=O)[C@H](CO)NC(=O)[C@@H](NC(=O)[C@H](Cc1ccccc1)NC(=O)[C@@H](NC(=O)CNC(=O)[C@H](CCC(N)=O)NC(=O)C(C)(C)NC(=O)[C@@H](N)Cc1ccc(O)cc1)[C@@H](C)O)[C@@H](C)O)[C@@H](C)CC)C(=O)N[C@@H](CCC(=O)O)C(=O)N[C@@H](CCCCN)C(=O)N[C@@H](CCCNC(=N)N)C(=O)N[C@@H](C)C(=O)N[C@@H](C)C(=O)N[C@@H](CC(C)C)C(=O)N[C@@H](CCC(=O)O)C(=O)N[C@@H](Cc1ccccc1)C(=O)N[C@H](C(=O)N[C@@H](CCC(=O)O)C(=O)N[C@@H](Cc1c[nH]c2ccccc12)C(=O)N[C@@H](CC(C)C)C(=O)N[C@@H](CCCCN)C(=O)N[C@@H](CC(N)=O)C(=O)N[C@H](C(=O)NCC(=O)N1CCC[C@H]1C(=O)N[C@@H](CO)C(=O)N[C@@H](CO)C(=O)NCC(=O)N[C@@H](C)C(=O)N1CCC[C@H]1C(=O)N1CCC[C@H]1C(=O)N1CCC[C@H]1C(=O)N[C@@H](CO)C(N)=O)[C@@H](C)O)[C@@H](C)CC)C(=O)O
Take B3: the “EC50 hGIP R” value in the assay with human GIP receptor amounted to 0.0882 nM. Also, the “EC50 hGLUC R” value with human glucagon receptor was found to be 0.109 nM.
